These results are taken from publication PMC2991502 (Cytoskeleton (Hoboken, N.J.), 2010).

For the assay, the target named is Rabbit skeletal muscle actin (rabbit, UniProt P68135 1-377). Kind of assay: co-sedimentation.

B1: FRL2 FH1-FH2 I649A (amino acids 447-945 of the mouse protein) (domain or fragment)
chain: TSNQVHTLRRLIKEKEEAFQRRCHLEPSARGLESMGGEALARVGPTELTEGIPPSDLDLLAPAPPTEETLPLPPPPAPPLPPPPPPLPDKCPPAPPLPGAAPSVVLTVGLSAIRIKKPIKTKFRLPVFNWTALKPNQINGTVFSELDDEKILEDLDLDRFEELFKTKAQGPALDLICSKNKTAQKAASKVTLLEANRAKNLAATLRKAGRSAEEICRAIHTFDLQTLPVDFVECLMRFLPTEAEVKLLRQYERERQPLEELAAEDRFMLLFSKVERLTQRMAGMAFLGNFQDNLQMLTPQLNAIIAASASVKSSQKLKQMLEIILALGNYMNSSKRGAVYGFKLQSLDLLLDTKSTDRKMTLLHFIALTVKEKYPELANFWQELHFVEKAAAVSLENVLLDVKELGRGMELIRRECSIHDNSVLRNFLSTNEGKLDKLQRDAKTAEEAYNAVVRYFGESPKTTPPSVFFPVFVRFIRSYKEAEQENEARKKQEEVMREK
With B1, the binding result is “binds”.
